Measured values from patent US20220402983A1 (Janssen / Centocor, published 2022).
One block for each binder: values may come before it. Bridges are numbered along the chain shown (N, C = ends). [ ]: non-standard residue; d: D form. The star is where a group is joined. Trp(7-Me) = Cc1cccc2c(C[C@H](N)C(=O)O)c[nH]c12; Phe(4-NH2) = Nc1ccc(C[C@H](N)C(=O)O)cc1; 2Nal = N[C@@H](Cc1ccc2ccccc2c1)C(=O)O; (N-benzyl)Asn = N-benzyl-asparagine; AEF = NCCOc1ccc(C[C@H](N)C(=O)O)cc1; αMeF = C[C@](N)(Cc1ccccc1)C(=O)O; Cit = NC(=O)NCCC[C@H](N)C(=O)O; αMeL = CC(C)C[C@](C)(N)C(=O)O; Pen = CC(C)(S)[C@H](N)C(=O)O; αMeK = C[C@](N)(CCCCN)C(=O)O; Ac5c = NC1(C(=O)O)CCCC1; Thp = NC1(C(=O)O)CCOCC1; Tfa = O=C(C(F)(F)F)*

Biological target: T1, human IL-23R (interleukin-23 receptor) (human, UniProt Q5VWK5 24-629)
T1 sequence (looked up): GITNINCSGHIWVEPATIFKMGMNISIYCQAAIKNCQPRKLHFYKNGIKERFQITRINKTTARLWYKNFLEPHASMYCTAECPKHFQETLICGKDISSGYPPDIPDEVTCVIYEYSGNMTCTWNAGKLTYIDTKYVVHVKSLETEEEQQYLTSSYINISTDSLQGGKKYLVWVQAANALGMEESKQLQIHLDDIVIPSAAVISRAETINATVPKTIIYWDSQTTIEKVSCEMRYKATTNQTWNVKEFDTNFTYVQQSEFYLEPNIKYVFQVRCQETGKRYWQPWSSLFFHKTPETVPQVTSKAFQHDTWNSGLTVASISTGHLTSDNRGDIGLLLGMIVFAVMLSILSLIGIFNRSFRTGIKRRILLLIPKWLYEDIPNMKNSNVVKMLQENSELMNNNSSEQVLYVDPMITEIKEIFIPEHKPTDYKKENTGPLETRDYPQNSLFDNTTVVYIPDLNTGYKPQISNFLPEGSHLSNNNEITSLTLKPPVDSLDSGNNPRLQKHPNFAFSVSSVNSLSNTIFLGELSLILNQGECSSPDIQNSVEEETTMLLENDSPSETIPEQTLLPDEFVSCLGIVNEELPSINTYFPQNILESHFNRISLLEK
Experiment: cell-based or functional assay

- PBMC pSTAT3 IC50 (nM): 11 nM
B10: Compound No. 107 (peptide)
peptide: Ac-[Pen]NT[Trp(7-Me)]K(Ac)[Pen][AEF][2Nal][αMeK]K(Ac)N[Thp][dY]-NH2
modifications: disulfide 1-6
SMILES: CC(=O)NCCCC[C@@H]1NC(=O)[C@H](Cc2c[nH]c3c(C)cccc23)NC(=O)[C@H]([C@@H](C)O)NC(=O)[C@H](CC(N)=O)NC(=O)[C@@H](NC(C)=O)C(C)(C)SSC(C)(C)[C@@H](C(=O)N[C@@H](Cc2ccc(OCCN)cc2)C(=O)N[C@@H](Cc2ccc3ccccc3c2)C(=O)N[C@@](C)(CCCCN)C(=O)N[C@@H](CCCCNC(C)=O)C(=O)N[C@@H](CC(N)=O)C(=O)NC2(C(=O)N[C@H](Cc3ccc(O)cc3)C(N)=O)CCOCC2)NC1=O

- PBMC pSTAT3 IC50 (nM): 5.1 nM
B11: Compound No. 108 (peptide)
peptide: Ac-[Pen]NT[Trp(7-Me)][Cit][Pen][AEF][2Nal][αMeL]K(Ac)N[Thp]-NH2
modifications: disulfide 1-6
SMILES: CC(=O)NCCCC[C@H](NC(=O)[C@](C)(CC(C)C)NC(=O)[C@H](Cc1ccc2ccccc2c1)NC(=O)[C@H](Cc1ccc(OCCN)cc1)NC(=O)[C@H]1NC(=O)[C@H](CCCNC(N)=O)NC(=O)[C@H](Cc2c[nH]c3c(C)cccc23)NC(=O)[C@H]([C@@H](C)O)NC(=O)[C@H](CC(N)=O)NC(=O)[C@@H](NC(C)=O)C(C)(C)SSC1(C)C)C(=O)N[C@@H](CC(N)=O)C(=O)NC1(C(N)=O)CCOCC1

- PBMC pSTAT3 IC50 (nM): 700 nM
B12: Compound No. 110 (peptide)
peptide: Ac-[dR][Pen]QTWQ[Pen][AEF][2Nal][Thp]EN[(N-benzyl)Asn]-NH2
modifications: disulfide 2-7

- pStat3 HTRF (nM), IC50, DB cells IL23R pSTAT3 cell assay: 2.09 nM
B13: Compound No. 112 (peptide)
peptide: Ac-[Pen]NT[Trp(7-Me)]K(Ac)[Pen][AEF][2Nal][αMeK]K(Ac)N[Phe(4-NH2)]-NH2
modifications: disulfide 1-6
SMILES: CC(=O)NCCCC[C@@H]1NC(=O)[C@H](Cc2c[nH]c3c(C)cccc23)NC(=O)[C@H]([C@@H](C)O)NC(=O)[C@H](CC(N)=O)NC(=O)[C@@H](NC(C)=O)C(C)(C)SSC(C)(C)[C@@H](C(=O)N[C@@H](Cc2ccc(OCCN)cc2)C(=O)N[C@@H](Cc2ccc3ccccc3c2)C(=O)N[C@@](C)(CCCCN)C(=O)N[C@@H](CCCCNC(C)=O)C(=O)N[C@@H](CC(N)=O)C(=O)N[C@@H](Cc2ccc(N)cc2)C(N)=O)NC1=O

More lines, now with the values behind:

B1: Compound No. 98 (peptide)
peptide: Ac-[Pen]NTWK(Ac)[Pen][AEF][2Nal][αMeK]K(Ac)N[αMeF]-NH2
modifications: disulfide 1-6
SMILES: CC(=O)NCCCC[C@@H]1NC(=O)[C@H](Cc2c[nH]c3ccccc23)NC(=O)[C@H]([C@@H](C)O)NC(=O)[C@H](CC(N)=O)NC(=O)[C@@H](NC(C)=O)C(C)(C)SSC(C)(C)[C@@H](C(=O)N[C@@H](Cc2ccc(OCCN)cc2)C(=O)N[C@@H](Cc2ccc3ccccc3c2)C(=O)N[C@@](C)(CCCCN)C(=O)N[C@@H](CCCCNC(C)=O)C(=O)N[C@@H](CC(N)=O)C(=O)N[C@@](C)(Cc2ccccc2)C(N)=O)NC1=O
- PBMC pSTAT3 IC50 (nM): 15 nM

B2: Compound No. 99 (peptide)
peptide: Ac-[dR][Pen]NT[Trp(7-Me)]Q[Pen][AEF][2Nal][Ac5c]EN[Thp]-NH2
modifications: disulfide 2-7
SMILES: CC(=O)N[C@H](CCCNC(=N)N)C(=O)N[C@@H]1C(=O)N[C@@H](CC(N)=O)C(=O)N[C@@H]([C@@H](C)O)C(=O)N[C@@H](Cc2c[nH]c3c(C)cccc23)C(=O)N[C@@H](CCC(N)=O)C(=O)N[C@H](C(=O)N[C@@H](Cc2ccc(OCCN)cc2)C(=O)N[C@@H](Cc2ccc3ccccc3c2)C(=O)NC2(C(=O)N[C@@H](CCC(=O)O)C(=O)N[C@@H](CC(N)=O)C(=O)NC3(C(N)=O)CCOCC3)CCCC2)C(C)(C)SSC1(C)C
- PBMC pSTAT3 IC50 (nM): 4.2 nM

B3: Compound No. 100 (peptide)
peptide: Ac-[Pen]NT[Trp(7-Me)]K(Ac)[Pen][AEF][2Nal][αMeK]K(Ac)N[αMeF][dY]-NH2
modifications: disulfide 1-6
SMILES: CC(=O)NCCCC[C@@H]1NC(=O)[C@H](Cc2c[nH]c3c(C)cccc23)NC(=O)[C@H]([C@@H](C)O)NC(=O)[C@H](CC(N)=O)NC(=O)[C@@H](NC(C)=O)C(C)(C)SSC(C)(C)[C@@H](C(=O)N[C@@H](Cc2ccc(OCCN)cc2)C(=O)N[C@@H](Cc2ccc3ccccc3c2)C(=O)N[C@@](C)(CCCCN)C(=O)N[C@@H](CCCCNC(C)=O)C(=O)N[C@@H](CC(N)=O)C(=O)N[C@@](C)(Cc2ccccc2)C(=O)N[C@H](Cc2ccc(O)cc2)C(N)=O)NC1=O
- PBMC pSTAT3 IC50 (nM): 21 nM

B4: Compound No. 101 (peptide)
peptide: Ac-[dR][Pen]NT[Trp(7-Me)]K(Ac)[Pen][AEF][2Nal][Ac5c]EN[Thp]-NH2
modifications: disulfide 2-7
SMILES: CC(=O)NCCCC[C@@H]1NC(=O)[C@H](Cc2c[nH]c3c(C)cccc23)NC(=O)[C@H]([C@@H](C)O)NC(=O)[C@H](CC(N)=O)NC(=O)[C@@H](NC(=O)[C@@H](CCCNC(=N)N)NC(C)=O)C(C)(C)SSC(C)(C)[C@@H](C(=O)N[C@@H](Cc2ccc(OCCN)cc2)C(=O)N[C@@H](Cc2ccc3ccccc3c2)C(=O)NC2(C(=O)N[C@@H](CCC(=O)O)C(=O)N[C@@H](CC(N)=O)C(=O)NC3(C(N)=O)CCOCC3)CCCC2)NC1=O
- PBMC pSTAT3 IC50 (nM): 0.74 nM

B5: Compound No. 102 (peptide)
peptide: Ac-[dR][Pen]NTWK(Ac)[Pen][AEF][2Nal][Ac5c]EN[αMeF]-NH2
modifications: disulfide 2-7
SMILES: CC(=O)NCCCC[C@@H]1NC(=O)[C@H](Cc2c[nH]c3ccccc23)NC(=O)[C@H]([C@@H](C)O)NC(=O)[C@H](CC(N)=O)NC(=O)[C@@H](NC(=O)[C@@H](CCCNC(=N)N)NC(C)=O)C(C)(C)SSC(C)(C)[C@@H](C(=O)N[C@@H](Cc2ccc(OCCN)cc2)C(=O)N[C@@H](Cc2ccc3ccccc3c2)C(=O)NC2(C(=O)N[C@@H](CCC(=O)O)C(=O)N[C@@H](CC(N)=O)C(=O)N[C@@](C)(Cc3ccccc3)C(N)=O)CCCC2)NC1=O
- PBMC pSTAT3 IC50 (nM): 8.4 nM

B6: Compound No. 103 (peptide)
peptide: Ac-[Pen]NTWK(Tfa)[Pen][AEF][2Nal][αMeK]K(Ac)N[Thp]-NH2
modifications: disulfide 1-6
SMILES: CC(=O)NCCCC[C@H](NC(=O)[C@](C)(CCCCN)NC(=O)[C@H](Cc1ccc2ccccc2c1)NC(=O)[C@H](Cc1ccc(OCCN)cc1)NC(=O)[C@H]1NC(=O)[C@H](CCCCNC(=O)C(F)(F)F)NC(=O)[C@H](Cc2c[nH]c3ccccc23)NC(=O)[C@H]([C@@H](C)O)NC(=O)[C@H](CC(N)=O)NC(=O)[C@@H](NC(C)=O)C(C)(C)SSC1(C)C)C(=O)N[C@@H](CC(N)=O)C(=O)NC1(C(N)=O)CCOCC1
- PBMC pSTAT3 IC50 (nM): 57 nM

B7: Compound No. 104 (peptide)
peptide: Ac-[Pen]NT[Trp(7-Me)][Cit][Pen][AEF][2Nal][αMeL]K(Ac)N[αMeF]-NH2
modifications: disulfide 1-6
SMILES: CC(=O)NCCCC[C@H](NC(=O)[C@](C)(CC(C)C)NC(=O)[C@H](Cc1ccc2ccccc2c1)NC(=O)[C@H](Cc1ccc(OCCN)cc1)NC(=O)[C@H]1NC(=O)[C@H](CCCNC(N)=O)NC(=O)[C@H](Cc2c[nH]c3c(C)cccc23)NC(=O)[C@H]([C@@H](C)O)NC(=O)[C@H](CC(N)=O)NC(=O)[C@@H](NC(C)=O)C(C)(C)SSC1(C)C)C(=O)N[C@@H](CC(N)=O)C(=O)N[C@@](C)(Cc1ccccc1)C(N)=O
- PBMC pSTAT3 IC50 (nM): 8.2 nM

B8: Compound No. 105 (peptide)
peptide: Ac-[dR][Pen]NTWK(Ac)[Pen][AEF][2Nal][Thp]EN[Thp]-NH2
modifications: disulfide 2-7
SMILES: CC(=O)NCCCC[C@@H]1NC(=O)[C@H](Cc2c[nH]c3ccccc23)NC(=O)[C@H]([C@@H](C)O)NC(=O)[C@H](CC(N)=O)NC(=O)[C@@H](NC(=O)[C@@H](CCCNC(=N)N)NC(C)=O)C(C)(C)SSC(C)(C)[C@@H](C(=O)N[C@@H](Cc2ccc(OCCN)cc2)C(=O)N[C@@H](Cc2ccc3ccccc3c2)C(=O)NC2(C(=O)N[C@@H](CCC(=O)O)C(=O)N[C@@H](CC(N)=O)C(=O)NC3(C(N)=O)CCOCC3)CCOCC2)NC1=O
- PBMC pSTAT3 IC50 (nM): 2.2 nM

B9: Compound No. 106 (peptide)
peptide: Ac-[dR][Pen]NTWK(Ac)[Pen][AEF][2Nal][Thp]EN[αMeF]-NH2
modifications: disulfide 2-7
SMILES: CC(=O)NCCCC[C@@H]1NC(=O)[C@H](Cc2c[nH]c3ccccc23)NC(=O)[C@H]([C@@H](C)O)NC(=O)[C@H](CC(N)=O)NC(=O)[C@@H](NC(=O)[C@@H](CCCNC(=N)N)NC(C)=O)C(C)(C)SSC(C)(C)[C@@H](C(=O)N[C@@H](Cc2ccc(OCCN)cc2)C(=O)N[C@@H](Cc2ccc3ccccc3c2)C(=O)NC2(C(=O)N[C@@H](CCC(=O)O)C(=O)N[C@@H](CC(N)=O)C(=O)N[C@@](C)(Cc3ccccc3)C(N)=O)CCOCC2)NC1=O
- PBMC pSTAT3 IC50 (nM): 13 nM
